Data as given in the supplement of paper PMC11246515.
± gives the standard deviation of the averaged measurements.

Test: total protein half-life in vivo (active degradation + dilution); higher = more stable protein
[1] = E. coli NCM3722 delta-clpP delta-lon delta-hslV, growth: N-lim chemostat, doubling time 6 h
[2] = wild type E. coli NCM3722, growth: C-lim chemostat, doubling time 6 h
[3] = wild type E. coli NCM3722, growth: C-lim chemostat, doubling time 12 h
[4] = E. coli NCM3722 delta-clpP, growth: N-lim chemostat, doubling time 6 h
[5] = E. coli NCM3722 delta-hslV, growth: N-lim chemostat, doubling time 6 h
[6] = E. coli NCM3722 delta-lon, growth: N-lim chemostat, doubling time 6 h
[7] = E. coli NCM3722 delta-smpB, growth: N-lim chemostat, doubling time 6 h
[8] = wild type E. coli NCM3722, growth: N-lim chemostat, doubling time 6 h
[9] = wild type E. coli NCM3722, growth: N-lim chemostat, doubling time 12 h
[10] = wild type E. coli NCM3722, growth: P-lim chemostat, doubling time 6 h
[11] = wild type E. coli NCM3722, growth: P-lim chemostat, doubling time 12 h
[12] = wild type E. coli NCM3722, growth: C-lim chemostat, doubling time 3 h

Sequence | total protein half-life in vivo [1] [h] | total protein half-life in vivo [2] [h] | total protein half-life in vivo [3] [h] | total protein half-life in vivo [4] [h] | total protein half-life in vivo [5] [h] | total protein half-life in vivo [6] [h] | total protein half-life in vivo [7] [h] | total protein half-life in vivo [8] [h] | total protein half-life in vivo [9] [h] | total protein half-life in vivo [10] [h] | total protein half-life in vivo [11] [h] | total protein half-life in vivo [12] [h]
MKWFNTLSHNRWLEQETDRIFDFGKNSVVPTGFGWLGNKGQIKEEMGTHLWITARMLHVYSVAAAMGRPGAYSLVDHGIKAMNGALRDKKYGGWYACVNDEGVVDASKQGYQHFFALLGAASAVTTGHPEARKLLDYTIEIIEKYFWSEEEQMCLESWDEAFSKTEEYRGGNANMHAVEAFLIVYDVTHDKKWLDRAIRVASVIIHDVARNNHYRVNEHFDTQWNPLPDYNKDNPAHRFRAFGGTPGHWIEWGRLMLHIHAALEARCEQPPAWLLEDAKGLFNATVRDAWAPDGADGIVYTVDWEGKPVVRERVRWPIVEAMGTAYALYTVTGDRQYETWYQTWWEYCIKYLMDYENGSWWQELDADNKVTTKVWDGKQDIYHLLHCLVIPRIPLAPGMAPAVAAGLLDINAK | 7.17 | 4.37 | 5.87 | – | – | – | – | – | – | – | – | –
MNTTLFRWPVRVYYEDTDAGGVVYHASYVAFYERARTEMLRHHHFSQQALMAERVAFVVRKMTVEYYAPARLDDMLEIQTEITSMRGTSLVFTQRIVNAENTLLNEAEVLVVCVDPLKMKPRALPKSIVAEFKQ [P0A8Z3] | 5.87 ± 0.51 | 5.99 ± 0.073 | 11.1 ± 2.1 | 6.54 ± 0.91 | 6.41 ± 0.61 | 6.27 ± 0.26 | 5.7 ± 0.13 | 5.28 ± 0.094 | 12.3 ± 2.7 | 5.68 ± 0.45 | 12.63 ± 0.092 | –
MATLTAKNLAKAYKGRRVVEDVSLTVNSGEIVGLLGPNGAGKTTTFYMVVGIVPRDAGNIIIDDDDISLLPLHARARRGIGYLPQEASIFRRLSVYDNLMAVLQIRDDLSAEQREDRANELMEEFHIEHLRDSMGQSLSGGERRRVEIARALAANPKFILLDEPFAGVDPISVIDIKRIIEHLRDSGLGVLITDHNVRETLAVCERAYIVSQGHLIAHGTPTEILQDEHVKRVYLGEDFRL [P0A9V1] | 6.21 ± 0.31 | 6.061 ± 0.04 | 11.2 ± 0.66 | 6.33 ± 0.48 | 5.919 ± 0.031 | 6.05 ± 0.57 | 5.51 ± 0.55 | 5.52 ± 0.24 | 13.3 ± 0.87 | 5.46 ± 0.24 | 12.4 ± 0.82 | 2.811 ± 0.004
MSEPMMWLLVRGVWETLAMTFVSGFFGFVIGLPVGVLLYVTRPGQIIANAKLYRTVSAIVNIFRSIPFIILLVWMIPFTRVIVGTSIGLQAAIVPLTVGAAPFIARMVENALLEIPTGLIEASRAMGATPMQIVRKVLLPEALPGLVNAATITLITLVGYSAMGGAVGAGGLGQIGYQYGYIGYNATVMNTVLVLLVILVYLIQFAGDRIVRAVTRK | 6.59 | 6.38 | 11.6 | 6.5 | 6.24 | 5.881 ± 0.054 | 5.76 ± 0.38 | 6.095 ± 0.06 | 11.6 ± 1.8 | 6.63 ± 0.78 | – | 3.25 ± 0.28
MIDLRSDTVTRPSRAMLEAMMAAPVGDDVYGDDPTVNALQDYAAELSGKEAAIFLPTGTQANLVALLSHCERGEEYIVGQAAHNYLFEAGGAAVLGSIQPQPIDAAADGTLPLDKVAMKIKPDDIHFARTKLLSLENTHNGKVLPREYLKEAWEFTRERNLALHVDGARIFNAVVAYGCELKEITQYCDSFTICLSKGLGTPVGSLLVGNRDYIKRAIRWRKMTGGGMRQSGILAAAGIYALKNNVARLQEDHDNAAWMAEQLREAGADVMRQDTNMLFVRVGEENAAALGEYMKARNVLINASPIVRLVTHLDVSREQLAEVAAHWRAFLAR | 5.25 ± 0.99 | 5.88 ± 0.24 | 10.8 ± 0.43 | – | 4.88 ± 0.86 | 5.53 ± 0.73 | 4.18 ± 0.28 | 4.39 ± 0.4 | 6.44 ± 0.27 | 5.87 ± 0.12 | 11.2 ± 1.5 | 3.162 ± 0.023
MKNIVPDYRLDMVGEPCPYPAVATLEAMPQLKKGEILEVVSDCPQSINNIPLDARNHGYTVLDIQQDGPTIRYLIQK [P0AA31] | – | 5.2 ± 0.98 | 6.03 | – | – | – | – | – | – | – | – | 3.04 ± 0.69
